Laboratory results published in the DeepSol protein solubility set.

experiment: soluble on expression in E. coli; label from the status in PepcDB or PDB records

Question: Which “soluble on expression in E. coli” value does the source give for “MSSSSFTTERPFTPELLSPAGTLKNMRYAFAYGADAVYAGQPRYSLRVRNNEFNHENLALGIQEAHALGKRFYVVVNIAPHNSKLKTFLRDLKPVIEMGPDALIMSDPGLIMMVRDAFPQMDIHLSVQANAVNWATVKFWQQMGLTRVILSRELSLEEIAEIRAQVPEMELEVFVHGALCMAYSGRCLLSGYINKRDPNQGTCTNACRWEYNVQEGKEDDVGNIVHIHQPIAVKNVEPTLGIGAPTDKVFVIEEAQRPGEYMTASEDEHGTYIMNSKDLRAIQHVERLTQLGVHSLKIEGRTKSFYYCARTAQVYRRAIDDAVAGKPFDPSLLTTLEGLAHRGYTEGFLRRHVHEEQQTYEYGYSVSERQQFVGEFTGVRREGLAEVLVKNKFSRGDSVELMTPKGNIQFTLESMQDKKGQPADIAPGNGHIMYLPIPEEIDVEYGLLIRNLNGTNSRNPHEKA” here?
Answer: not soluble

Question: With “MSLTNSSKSFTKFMAASAVFTMGFLSVPTAGAEQTNQIANKPQAIQWHTNLTNERFTTIAHRGASGYAPEHTFQAYDKSHNELKASYIEIDLQRTKDGHLVAMHDETVNRTTNGHGKVEDYTLDELKQLDAGSWFNKKYPKYARASYKNAKVPTLDEILERYGPNANYYIETKSPDVYPGMEEQLLASLKKHHLLNNNKLKNGHVMIQSFSDESLKKIHRQNKHVPLVKLVDKGELQQFNDQRLKEIRSYAIGLGPDYTDLTEQNTHHLKDLGFIVHPYTVNEKADMLRLNKYGVDGVFTNFADKYKEVIKEGHHHHHH” as the sequence, how does the “soluble on expression in E. coli” value read?
Answer: soluble

Question: Which “soluble on expression in E. coli” value does the source give for “MGSDKIHHHHHHMARKRDDAALHLPLPEERQVTAFLQAHPDFLVRHPDLLLSLSPPSRWADDDGVLDMQVFMIDRLRDEVERVRGAAEHLIHTSRSNMSIQTRTHRAVLSILGAESMAELVEAISDDLPALLDVDVATLCFEKSEEALPDLLAPGILTLPGGTVAQIMGGADRDCALTEEMPGDPALFGDGAGLVQSSAVVRLSPGGKSPDGVMALGSRHGRTFHAGQATELITFLARVVEGSVRRFVG” here?
Answer: not soluble

Question: For “MGHHHHHHSHVLLVTANVGSLFDDPENLQKNWLREFYQVVHTHKPHFMALHCQEFGGKNYEASMSHVDKFVKELLSSDAMKEYNRARVYLDENYKSQEHFTALGSFYFLHESLKNIYQFDFKAKKYRKVAGKEIYSDTLESTPMLEKEKFPQDYFPECKWSRKGFIRTRWCIADCAFDLVNIHLFHDASNLVAWETSPSVYSGIRHKALGYVLDRIIDQRFEKVSYFVFGDFNFRLDSKSVVETLCTKATMQTVRAADTNEVVKLIFRESDNDRKVMLQLEKKLFDYFNQEVFRDNNGTALLEFDKELSVFKDRLYELDISFPPSYPYSEDARQGEQYMNTRCPAWCDRILMSPSAKELVLRSESEEKVVTYDHIGPNVCMGDHKPVFLAFRIMPG”, which “soluble on expression in E. coli” value is on record?
Answer: not soluble

Question: With “MYEQACTTILVGKKATVDGSTMIARNDDTFMPITPQKFIVHPAVHGRNETLTSGKNGFTAPLPADGYRYQAVPNIEVAEKGVFEENGFNEKNVGVSSTESVYGNEHTLTFDPFVPNGLAEDSLPTMLTPFIDSARGGVEYLGQLIAKYGSPEGNGVLFNDKDDVWYMEIVTGHHWVAQRIPDDAYAVAANQVAIQWVDFDDPDNFMWSDGIQEFVAEHHLNPDKEGFNFRHIFGTDNEKDRHYNTPRVWYGQRYFNPEIEQDPQSSELPFICHAAKKISVADVEFVLGSHYNETKYDPFLNTPEAKKFRPISMNRTQNSHVMQVRNDVPAEQSAIMWMTFGVPAFAPYLPFHANVSETDPSFANTPLKHDMNSAYWLYRTLSMIVESHYADFVQDDIDYLKECRIELGQFVAATDEQAAKLSGDELTAFLTEQDKVMVAKMRDKAQALIGQLVTKGLTLSKLTYNVDINLLEHHHHHH” as the sequence, how does the “soluble on expression in E. coli” value read?
Answer: not soluble

Question: For “KGMTPPKTVNFKMKGVADAAFSHEFHLGMYKCNECHTKLFAYKAGAKRFTMADMDKGKSCGACHNGKDAFSSASDCGKCHPG”, which “soluble on expression in E. coli” value is on record?
Answer: soluble

Question: For “MGSDKIHHHHHHMVVNLEGKISKIGQNMKSSIIREILKFAADKDAISFGGGVPDPETFPRKELAEIAKEIIEKEYHYTLQYSTTEGDPVLKQQILKLLERMYGITGLDEDNLIFTVGSQQALDLIGKLFLDDESYCVLDDPAYLGAINAFRQYLANFVVVPLEDDGMDLNVLERKLSEFDKNGKIKQVKFIYVVSNFHNPAGVTTSLEKRKALVEIAEKYDLFIVEDDPYGALRYEGETVDPIFKIGGPERVVLLNTFSKVLAPGLRIGMVAGSKEFIRKIVQAKQSADLCSPAITHRLAARYLERYDLLEQLKPTIELYRRKRTVMLNALEEYFSDIPGVKWVKSEGGLFIWLTLPEGFDTWEMFEYAKRKKVFYVPGRVFKVYDEPSPSMRLSFCLPPDEKIVEGIKRLREVVLEYGKEKHLL”, which “soluble on expression in E. coli” value is on record?
Answer: soluble

Question: For “MVAQKAYVSTPTLIDYLSRSAIKLLDIHSILLKVREEAMGGEPNLLRQIDSTKKQLDEISHALILEYRKRQENERFLKQILLSISDQLFSLNNGFKETGRLFFQEIRMLQSQMQCFYEGKERQYLLSEQESSYSPSKIDEVIKQLQKAREKLIVESPHLFEKEC”, which “soluble on expression in E. coli” value is on record?
Answer: not soluble

Question: With “MGHHHHHHSHMSEPLCTSRPVLLPLNLKNIAPGRCISLTPFGHTDNLGFQCETCTDPNLNKSIPPKLEDPAFSKNELCSVTLTFYQQAEQVIQHKQFYLSLLNLSMDAVRNSLTQPGLLYCYLVTKAFMLEGFPIFFEETNGMLGLYLVFRRDLLHLHESYLRLLIDNLGNYDISVDSVGRSYIIKLCPVGNVSRIPTIPADNVCLAVNNLDYGDDVKASWIECFNIVSRLS” as the sequence, how does the “soluble on expression in E. coli” value read?
Answer: soluble

Question: With “SALKAEGAALDCFEVTLKCEEGEDEEEAMVVAVIPRPEPMLRVTQQEKTPPPRPSPLEAGSDGCEEPKQQVSWEQEFLVGSSPGGSGRALCMVCGAEIRAPSADTARSHILEQHPHTLDLSPSEKSNILEAWSEGVALLQDVRAEQPSPPNSDSGQDAHPDPDANPDAARMPAEIVVLLDSEDNPSLPKRSRPRGLRPLELPAVPATEPGNKKPRGQRWKEPPGEEPVRKKRGRPMTKNLDPDPEPPSPDSPTETFAAPAEVRHFTDGSFPAGFVLQLFSHTQLRGPDSKDSPKDREVAEGGLPRAESPSPAPPPGLRGTLDLQVIRVRMEEPPAVSLLQDWSRHPQGTKRVGAGDTSDWPTVLSESSTTVAGKPEKGNGV” as the sequence, how does the “soluble on expression in E. coli” value read?
Answer: soluble

Question: Which “soluble on expression in E. coli” value does the source give for “SIAYIEPYFLENDAEAASAATAAGKSTDGVSESLNIQGEILCGGAAADIAGRDFGGMNCVKPLAVVRPVGPEDIAGAVKAALRSDKLTVAARGNGHSINGQAMAEGGLVVDMSTTAENHFEVGYLSGGDATAFVDVSGGALWEDVLKRCVSEYGLAPRSWTDYLGLTVGGTLSNAGVSGQAFRYGPQTSNVTELDVVTGNGDVVTCSEIENSELFFSVLGGLGQFGIITRARVLLQPAPDMVRWIRVVYTEFDEFTQDAEWLVSQKNESSFDYVEGFVFVNGADPVNGWPTVPLHPDHEFDPTRLPQSCGSVLYCLELGLHYRDSDSNSTIDKRVERLIGRLRFNEGLRFEVDLPYVDFLLRVKRSEEIAKENGTWETPHPWLNLFVSKRDIGDFNRTVFKELVKNGVNGPMLVYPLLRSRWDDRTSVVIPEEGEIFYIVALLRFVPPCAKVSSVEKMVAQNQEIVHWCVKNGIDYKLYLPHYKSQEEWIRHFGNRWSRFVDRKAMFDPMAILSPGQKIFNRSL” here?
Answer: soluble

Question: For “MGSDKIHHHHHHMEVEIVERNAFTAVGKKRTFSVENDAQKEKISQFWQEVNANGDAERINELAEFATIDGILGVCQMNGDQMDYYIAIESELTPPADMEKLTIPASKWAIFKSVGPLPNAIQKVWEYIYGEWFQTCNYTHGNAPELEVYTEGDTTAVDYYSEVWIPVVEKD”, which “soluble on expression in E. coli” value is on record?
Answer: not soluble

Question: Which “soluble on expression in E. coli” value does the source give for “MGSDKIHHHHHHMHGKLVEVADGVYAYIQGRGEWFVNNAGLIVGEEFSVVVDSVCNEQRAKEMISQFREVTAKDFRILINTHGHPDHVWTNHLFDAVAVAHEMGRQETLMAFVEIYQSLFPDLDFSGAKITPQNITFESRMKLYNDAEMQIIHPGVAHTRGDCYIYIPQKKVVFCGDLLFAKPCTPLAVGGSVRGSVNALRELLNLDAKIYVPGHGGLAGEEHLVEAIEYFEFVWEEAKKRHERGMGWYEAAMDIDLGEYAKWSEAERIVGNVARAYAEIEGRELEFAELVEVARKMLEYGGGRK” here?
Answer: not soluble

Question: For “MKDNLKEARRYLNNAKEMLSQKAKKEGKFYQDKKYIRLAGHAAYSGVLIALDNVLGNKDSGRKSVDWYKSELAKLDKKALTAFNGAYETLHLAMSYDGNIVANVSKSGIELADSIITWAETRTAAA”, which “soluble on expression in E. coli” value is on record?
Answer: not soluble
